The chains are these.
B1: TPR 5TU (parent)
chain: GGAUCUUCUCGAUCUAACAAAAAAGACAAAUCUGCCACAAAGCUUGAGAGCAUCUUCGGAUGCAGAGGCGGCAGCCUUCGGUGGCGCGAUAGCGCCAACGUUCUCAACUAUGACACGCAAAACGCGUGCUCCGUUGAAUGGAGUUUAUCAUG

Fewer inactive variants are shown than the library holds.

The variants in this data set derive from B1. Put plainly: polymerase ribozyme fitness, log enrichment relative to wild type (log ratio); higher = more active; in vitro selection for triplet polymerase activity. An outline of the steps: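 Each subunit of a heterodimeric triplet polymerase ribozyme was represented by a PCR-built, transcribed mutant library that underwent triplicate single-round in vitro selection with frozen incubation at −7 °C. Extended constructs were recovered by gel excision, streptavidin-bead capture and RT-PCR, and Illumina sequencing of input and output libraries kept genotypes with ≥10 input reads and ≥1 read per output. Fitness is the logarithm of genotype enrichment relative to wild-type enrichment, from inverse-variance-weighted replicate averages, with a logarithm base of 2.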
For A20U A22U A121U G128A C129U A137C A138C, the “polymerase ribozyme fitness (log ratio)” value is at most -4.2. C96U G143A: the “polymerase ribozyme fitness (log ratio)” value was -0.236. On to U33A G46A G59A C103A A115G, for which the “polymerase ribozyme fitness (log ratio)” value was -4.12.

On to C85A G140U, for which the “polymerase ribozyme fitness (log ratio)” value was -3. For the variant C95U G141A, the “polymerase ribozyme fitness (log ratio)” value stood at 0.432. G42C U55A C85U: the “polymerase ribozyme fitness (log ratio)” value was at most -4.2. With U9A A23U U77A, the “polymerase ribozyme fitness (log ratio)” value was at most -4.2. Consider A39G C75U C85U A137G, for which the “polymerase ribozyme fitness (log ratio)” value was -3.67.

For U53A G100U, the “polymerase ribozyme fitness (log ratio)” value is -3.41. Regarding G92A C116G C123G, the “polymerase ribozyme fitness (log ratio)” value is -2.92. Turning to C36G G86A G117U U130A G140A, the “polymerase ribozyme fitness (log ratio)” value was at most -4.2. As for C76U C105G, the “polymerase ribozyme fitness (log ratio)” value was -3.71.

As to U7G G11U A16G A24C U31G G34U A98G G117C, the “polymerase ribozyme fitness (log ratio)” value is at most -4.2. For C8U G83C C125U, the “polymerase ribozyme fitness (log ratio)” value is at most -4.2. As for A16G A37C G46A G50C C87A G92A A138C A147U, the “polymerase ribozyme fitness (log ratio)” value was at most -4.2. C10G U53C C93U A107G: the “polymerase ribozyme fitness (log ratio)” value is at most -4.2. In the case of U53G G59A, the “polymerase ribozyme fitness (log ratio)” value was -1.37.

As to C5G U9G G86A, the “polymerase ribozyme fitness (log ratio)” value was -4. As to A24U A47C G86A G94C C118U A137G, the “polymerase ribozyme fitness (log ratio)” value was at most -4.2. On to C131G A137U, for which the “polymerase ribozyme fitness (log ratio)” value was -4.16. As to U55A G88C G133U U145C, the “polymerase ribozyme fitness (log ratio)” value was at most -4.2. As for U6A C14U A91C A150U, the “polymerase ribozyme fitness (log ratio)” value was at most -4.2. As to A3G A29G U82A, the “polymerase ribozyme fitness (log ratio)” value was at most -4.2. On to G58A A73U U101G U102A U109A, for which the “polymerase ribozyme fitness (log ratio)” value is at most -4.2. For A26G C95U C96U, the “polymerase ribozyme fitness (log ratio)” value is -4.16. Turning to C8A U31G C36U C114U A142C, the “polymerase ribozyme fitness (log ratio)” value was -4.19.

In the case of G83U G94U C95A, the “polymerase ribozyme fitness (log ratio)” value is -1.62.

As to G81A U127C, the “polymerase ribozyme fitness (log ratio)” value is -2.04. For the variant U7A G94C U111C U135A A138U, the “polymerase ribozyme fitness (log ratio)” value was -3.87. For the variant C32U A147C, the “polymerase ribozyme fitness (log ratio)” value is -2.55.

With G11A A26C U90G, the “polymerase ribozyme fitness (log ratio)” value is at most -4.2. Regarding A17G G48U C87U A89U A119C, the “polymerase ribozyme fitness (log ratio)” value is -2.96. Regarding A17G A89G, the “polymerase ribozyme fitness (log ratio)” value is -0.582. For C14A G25A U53G G84C C87U G117C G124A, the “polymerase ribozyme fitness (log ratio)” value is at most -4.2.

On to A23G U56A C63A C85U C93U, for which the “polymerase ribozyme fitness (log ratio)” value is at most -4.2. Regarding U55A C132A A137G G143A U146G, the “polymerase ribozyme fitness (log ratio)” value is at most -4.2. Take U9G A29C C32G G58C C76A C79A C118G G141C G143A: the “polymerase ribozyme fitness (log ratio)” value was at most -4.2.

Regarding G70A A97U, the “polymerase ribozyme fitness (log ratio)” value was -3.59. On to C96A G117U A138U, for which the “polymerase ribozyme fitness (log ratio)” value was at most -4.2.

In the case of A40C C96U, the “polymerase ribozyme fitness (log ratio)” value was -0.579.

As for U31C U55A U101C, the “polymerase ribozyme fitness (log ratio)” value was found to be 0.401. For the variant G68C G88U U104G C114U U127C, the “polymerase ribozyme fitness (log ratio)” value is at most -4.2. Regarding C18U A22U U53G C96A, the “polymerase ribozyme fitness (log ratio)” value is -3.13. On to C93U A97U C116A G133A, for which the “polymerase ribozyme fitness (log ratio)” value is at most -4.2. In the case of A3U A28C U55G U56G C63G G86C A91C, the “polymerase ribozyme fitness (log ratio)” value is at most -4.2. On to G86A A110U, for which the “polymerase ribozyme fitness (log ratio)” value was at most -4.2. For G58C C87A U109C U130G, the “polymerase ribozyme fitness (log ratio)” value is at most -4.2. To G81A C85A G136A belongs 0.0509.

With A22G A41C G62U C93A C95U C105A G112U C123G U134C G140A G141U, the “polymerase ribozyme fitness (log ratio)” value is at most -4.2. In the case of U78A U90C, the “polymerase ribozyme fitness (log ratio)” value is at most -4.2. On to A47U G50C A121U, for which the “polymerase ribozyme fitness (log ratio)” value was -3.92. For the variant C57U C87U C103G, the “polymerase ribozyme fitness (log ratio)” value was -1.94. Consider U4A A12C U55A G84U, for which the “polymerase ribozyme fitness (log ratio)” value was -2.4. For A40G G86A C95U C103G C108U C125G, the “polymerase ribozyme fitness (log ratio)” value was at most -4.2. For the variant A49G A113U, the “polymerase ribozyme fitness (log ratio)” value is -2.42. In the case of A16G A20U G46U A60G A138C, the “polymerase ribozyme fitness (log ratio)” value is at most -4.2.

With A52G G58C C99U, the “polymerase ribozyme fitness (log ratio)” value is -0.284.

Regarding A39C U130G, the “polymerase ribozyme fitness (log ratio)” value was at most -4.2. Regarding C38U U61G G92U C116G G140A U144C, the “polymerase ribozyme fitness (log ratio)” value is at most -4.2.

For C14G A37C, the “polymerase ribozyme fitness (log ratio)” value was -3.05. For C8G A22C A24U C69U A73U C93U, the “polymerase ribozyme fitness (log ratio)” value was at most -4.2.

Regarding U56A A89U, the “polymerase ribozyme fitness (log ratio)” value is -0.431. For the variant G59A C118A, the “polymerase ribozyme fitness (log ratio)” value is -0.536. Consider G46C C54U A66G G94A C95A G143A, for which the “polymerase ribozyme fitness (log ratio)” value is at most -4.2. Regarding C10A A23C G25C G92A A113U, the “polymerase ribozyme fitness (log ratio)” value was at most -4.2.

For C76U G84C, the “polymerase ribozyme fitness (log ratio)” value was -1.35. For U82A A89G C96G G128U, the “polymerase ribozyme fitness (log ratio)” value is -4.05. To C95A U101C belongs 0.62; to G65U C72A C85A U135G, at most -4.2; to A22G G58A A120G C123A C129G, -3.06.

As for A47G U53A C57A G84U C99U U134G G141C, the “polymerase ribozyme fitness (log ratio)” value was at most -4.2. As for U45A G46A U55C A66G U77G U82A C103G U135C U145C, the “polymerase ribozyme fitness (log ratio)” value was at most -4.2. For C18U G58C G86A U104C, the “polymerase ribozyme fitness (log ratio)” value was -1.79.

In the case of U4G A40C A49G C96A, the “polymerase ribozyme fitness (log ratio)” value was -3.02. For the variant U15G A28U G46C C57U C85A G86U U90A C95U C105U, the “polymerase ribozyme fitness (log ratio)” value is at most -4.2. Regarding G48C C54A A73U C99A A150C, the “polymerase ribozyme fitness (log ratio)” value is at most -4.2. Consider A3G C85U, for which the “polymerase ribozyme fitness (log ratio)” value was -1.05.

For G81A G86A U148A, the “polymerase ribozyme fitness (log ratio)” value was -3.94. For the variant A119U U127C, the “polymerase ribozyme fitness (log ratio)” value was -2.06. Turning to C75A C103G, the “polymerase ribozyme fitness (log ratio)” value was at most -4.2. As for A21C C43U C79G G83U C87G A91G A119U G141A, the “polymerase ribozyme fitness (log ratio)” value was at most -4.2. In the case of G84U C87G G88C G143C, the “polymerase ribozyme fitness (log ratio)” value was at most -4.2. Turning to A21U C32G G50A G83A G136A, the “polymerase ribozyme fitness (log ratio)” value was at most -4.2.

These data come from the RNAGym collection of RNA variant scans (doi:10.1073/pnas.2313332121).
